Test results taken from paper PMC7552397, “Crystal structure of caspase-11 CARD provides insights into caspase-11 activation” (Cell Discovery, 2020).
Each block holds one binder with its values, some of them ahead of it.

Legend:
[1] = target: T1, caspase-11 p20 subunit of the catalytic domain (murine, UniProt P70343 60-266); test: SEC; analytical gel-filtration column of auto-processed wild-type caspase-11 from E. coli; the fraction then on an SDS gel, bands identified by N-terminal sequencing and mass spectrum; settings: both partners purified
T1 construct: caspase-11, murine, p20 subunit, residues 60–266; source: E. coli, by auto-processing of MBP-tagged full-length wild-type caspase-11, purified
T1 sequence (looked up): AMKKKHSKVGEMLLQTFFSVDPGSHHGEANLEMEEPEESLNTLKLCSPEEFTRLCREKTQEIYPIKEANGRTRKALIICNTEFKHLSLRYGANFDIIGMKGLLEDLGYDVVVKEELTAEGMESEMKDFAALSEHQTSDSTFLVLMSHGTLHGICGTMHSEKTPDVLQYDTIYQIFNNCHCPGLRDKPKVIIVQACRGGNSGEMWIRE

[2] = target: the molecule itself; test: SEC; gel filtration on Superdex 200, 250 mM NaCl, 10 mM Tris-HCl pH 8.0; MBP-tagged proteins, 1 mg each where told
[3] = target: the molecule itself; test: SEC-MALS; DAWN HELEOS 8+, room temperature, samples at 1 mg/mL in 250 mM NaCl, 10 mM Tris-HCl pH 8.0; ASTRA analysis
[4] = target: the molecule itself; test: AUC; sedimentation velocity, 50,000 r.p.m., 20.0 °C, 250 mM NaCl, 10 mM Tris-HCl pH 8.0; 0.187 and 1.53 mg/mL; c(s) distributions; monomer to homodimer and homotetramer

binding result [1]: binds
B1: caspase-11 p10 subunit of the catalytic domain (domain or fragment, murine, UniProt P70343 286-373, looked up)
chain: AVKLSHVEKDFIAFYSTTPHHLSYRDKTGGSYFITRLISCFRKHACSCHLFDIFLKVQQSFEKASIHSQMPTIDRATLTRYFYLFPGN
notes: caspase-11, murine, p10 subunit, residues 286–373; source: E. coli, by auto-processing of MBP-tagged full-length wild-type caspase-11, purified

B2: MBP-caspase-11 protein carrying only the C254A mutation (C254A-caspase-11) (enzyme, murine, UniProt P70343 1-373, looked up)
chain: MAENKHPDKPLKVLEQLGKEVLTEYLEKLVQSNVLKLKEEDKQKFNNAERSDKRWVFVDAMKKKHSKVGEMLLQTFFSVDPGSHHGEANLEMEEPEESLNTLKLCSPEEFTRLCREKTQEIYPIKEANGRTRKALIICNTEFKHLSLRYGANFDIIGMKGLLEDLGYDVVVKEELTAEGMESEMKDFAALSEHQTSDSTFLVLMSHGTLHGICGTMHSEKTPDVLQYDTIYQIFNNCHCPGLRDKPKVIIVQAARGGNSGEMWIRESSKPQLCRGVDLPRNMEADAVKLSHVEKDFIAFYSTTPHHLSYRDKTGGSYFITRLISCFRKHACSCHLFDIFLKVQQSFEKASIHSQMPTIDRATLTRYFYLFPGN
notes: caspase-11, murine, full-length protein with C254A; also called MBP-caspase-11 C254A; source: E. coli, purified (gel filtration); not shown: MBP, N-terminal, kept; His6, C-terminal, kept
binding result [2]: binds

B3: MBP-tagged caspase-11 CARD, residues 1–101 (WT-CARD^aa1–101) (domain or fragment, murine, UniProt P70343 1-101, looked up)
chain: MAENKHPDKPLKVLEQLGKEVLTEYLEKLVQSNVLKLKEEDKQKFNNAERSDKRWVFVDAMKKKHSKVGEMLLQTFFSVDPGSHHGEANLEMEEPEESLNT
notes: source: E. coli Rosetta and BL21 (DE3), purified (nickel column, Superdex 200 gel filtration); not shown: MBP, N-terminal, kept; His6, C-terminal, kept
stoichiometry N [3]: 4 | stoichiometry N [4]: 2

B4: MBP-tagged WT-CARD^aa1–101 with the first ten amino acids replaced by a GS repeat sequence (GS repeat mutant) (domain or fragment, murine)
chain: GSGSGSGSGSLKVLEQLGKEVLTEYLEKLVQSNVLKLKEEDKQKFNNAERSDKRWVFVDAMKKKHSKVGEMLLQTFFSVDPGSHHGEANLEMEEPEESLNT
notes: flexible GS repeat that replaces the first ten amino acids of caspase-11; source: E. coli, purified (nickel column, gel filtration); not shown: MBP, N-terminal, kept; His6, C-terminal, kept
binding result [2]: binds

B5: MBP-tagged caspase-11 CARD, residues 1–101, V13A L14A L17A V21A (VLLV-CARD^aa1–101) (domain or fragment, murine, UniProt P70343 1-101, looked up)
chain: MAENKHPDKPLKAAEQAGKEALTEYLEKLVQSNVLKLKEEDKQKFNNAERSDKRWVFVDAMKKKHSKVGEMLLQTFFSVDPGSHHGEANLEMEEPEESLNT
notes: source: E. coli, purified (nickel column, gel filtration); not shown: MBP, N-terminal, kept; His6, C-terminal, kept
binding result [2]: binds
